Data taken from doi:10.1101/2024.05.17.594632 (bioRxiv, 2024).

Biological target: the molecule itself
Experiment: cryo-EM structure

B1: full-length phytochrome from Pseudomonas aeruginosa (PaBphP) (enzyme)
chain: MTSITPVTLANCEDEPIHVPGAIQPHGALVTLRADGMVLAASENIQALLGFVASPGSYLTQEQVGPEVLRMLEEGLTGNGPWSNSVETRIGEHLFDVIGHSYKEVFYLEFEIRTADTLSITSFTLNAQRIIAQVQLHNDTASLLSNVTDELRRMTGYDRVMAYRFRHDDSGEVVAESRREDLESYLGQRYPASDIPAQARRLYIQNPIRLIADVAYTPMRVFPALNPETNESFDLSYSVLRSVSPIHCEYLTNMGVRASMSISIVVGGKLWGLFSCHHMSPKLIPYPVRMSFQIFSQVCSAIVERLEQGRIAELLRVSTERRLALARRARDADDLFGALAHPDDGIAALIPCDGALVMLGGRTLSIRGDFERQAGNVLQRLQRDPERDIYHTDNWPQPSEDSPDGGDCCGVLAIRFHRQESGWIFWFRHEEVHRIRWGGKPEKLLTIGPSGPRLTPRGSFEAWEEVVRGHSTPWSETDLAIAEKLRLDLMELCLNHAAEVDRMRQRLIAVLGHDLRNPLQSISMAAALLSSSDTRTTELRQHISASSSRMERLVSQILDMSRLQSGIGLTVNPVDTDVSQLVRQIVCETDVAYPGLVIEIAIDPQVRAVVDPDRYAQVAANLLSNARHHGLPGRPVLVTLTRQGDEVCLSVLNETSGLSEAQLANLFEPFKRESADNQRNRNGLGIGLYISQAIAQAHQGRIDVDCRDDVITFCLRLPVRQAETGSSS
modifications: biliverdin chromophore (15Z in Pr, 15E in Pfr)
Q: Which “stoichiometry N” value does the source give for B1 here?
A: 2
